Measured values: patent US20260049138A1 (Chugai, published 2026)
Numbering of substitutions follows the chain as printed. In names and notes the source's numbering stands.

B1: GLS3000 N30Y one-arm antibody (antibody, human IgG1, kappa, L234A L235A, N297A, name in Kabat numbering)
heavy: QVQLVESGGGVVQPGRSLRLSCAASGFTFSNAWMHWVRQAPGKGLEWVAQIKAKSNNYATYYAESVKGRFTISRDDSKNSLYLQMNSLKTEDTAVYYCRYVHYGAYYGVDAWGQGTTVTVSSASTKGPSVFPLAPSSKSTSGGTAALGCLVKDYFPEPVTVSWNSGALTSGVHTFPAVLQSSGLYSLSSVVTVPSSSLGTQTYICNVNHKPSNTKVDKKVEPKSCDKTHTCPPCPAPEAAGGPSVFLFPPKPKDTLMISRTPEVTCVVVDVSHEDPEVKFNWYVDGVEVHNAKTKPREEQYASTYRVVSVLTVLHQDWLNGKEYKCKVSNKALPAPIEKTISKAKGQPREPQVYTLPPSRCELTKNQVSLSCAVKGFYPSDIAVEWESNGQPENNYKTTPPVLDSDGSFFLVSKLTVDKSRWQQGNVFSCSVMHEALHNHYTQKSLSLSPDYKDDDDK
chain: EPKSSDKTHTCPPCPAPELLGGPSVFLFPPKPKDTLMISRTPEVTCVVVDVSHEDPEVKFNWYVDGVEVHNAKTKPREEQYNSTYRVVSVLTVLHQDWLNGKEYKCKVSNKALPAPIEKTISKAKGQPREPQVCTLPPSRDELTKNQVSLWCLVKGFYPSDIAVEWESNGQPENNYKTTPPVLDSDGSFFLYSKLTVDKSRWQQGNVFSCSVMHEALHNRYTQKSLSLSP
light: DIVMTQSPLSLPVTPGEPASISCRSSQSLVHSNRYTYLHWYQQKPGQAPRLLIYKVSNRFSGVPDRFSGSGSGTDFTLKISRVEAEDVGVYYCGQGTQVPYTFGQGTKLEIKRTVAAPSVFIFPPSDEQLKSGTASVVCLLNNFYPREAKVQWKVDNALQSGNSQESVTEQDSKDSTYSLSSTLTLSKADYEKHKVYACEVTHQGLSSPVTKSFNRGEC
B2: GLS3000 N53A one-arm antibody (antibody, human IgG1, kappa, L234A L235A, N297A, name in Kabat numbering)
heavy: B1 heavy
chain: B1 chain
light: B1 light with Y35N, N58A
B3: GLS3000 N53D one-arm antibody (antibody, human IgG1, kappa, L234A L235A, N297A, name in Kabat numbering)
heavy: B1 heavy
chain: B1 chain
light: B1 light with Y35N, N58D
B4: GLS3000 N53E one-arm antibody (antibody, human IgG1, kappa, L234A L235A, N297A, name in Kabat numbering)
heavy: B1 heavy
chain: B1 chain
light: B1 light with Y35N, N58E
B5: GLS3000 N53F one-arm antibody (antibody, human IgG1, kappa, L234A L235A, N297A, name in Kabat numbering)
heavy: B1 heavy
chain: B1 chain
light: B1 light with Y35N, N58F
B6: GLS3000 N53G one-arm antibody (antibody, human IgG1, kappa, L234A L235A, N297A, name in Kabat numbering)
heavy: B1 heavy
chain: B1 chain
light: B1 light with Y35N, N58G
B7: GLS3000 N53H one-arm antibody (antibody, human IgG1, kappa, L234A L235A, N297A, name in Kabat numbering)
heavy: B1 heavy
chain: B1 chain
light: B1 light with Y35N, N58H
B8: GLS3000 N53I one-arm antibody (antibody, human IgG1, kappa, L234A L235A, N297A, name in Kabat numbering)
heavy: B1 heavy
chain: B1 chain
light: B1 light with Y35N, N58I
B9: GLS3000 N53K one-arm antibody (antibody, human IgG1, kappa, L234A L235A, N297A, name in Kabat numbering)
heavy: B1 heavy
chain: B1 chain
light: B1 light with Y35N, N58K
B10: GLS3000 N53L one-arm antibody (antibody, human IgG1, kappa, L234A L235A, N297A, name in Kabat numbering)
heavy: B1 heavy
chain: B1 chain
light: B1 light with Y35N, N58L
B11: GLS3000 N53M one-arm antibody (antibody, human IgG1, kappa, L234A L235A, N297A, name in Kabat numbering)
heavy: B1 heavy
chain: B1 chain
light: B1 light with Y35N, N58M
B12: GLS3000 N53P one-arm antibody (antibody, human IgG1, kappa, L234A L235A, N297A, name in Kabat numbering)
heavy: B1 heavy
chain: B1 chain
light: B1 light with Y35N, N58P
B13: GLS3000 N53Q one-arm antibody (antibody, human IgG1, kappa, L234A L235A, N297A, name in Kabat numbering)
heavy: B1 heavy
chain: B1 chain
light: B1 light with Y35N, N58Q
B14: GLS3000 N53R one-arm antibody (antibody, human IgG1, kappa, L234A L235A, N297A, name in Kabat numbering)
heavy: B1 heavy
chain: B1 chain
light: B1 light with Y35N, N58R
B15: GLS3000 N53S one-arm antibody (antibody, human IgG1, kappa, L234A L235A, N297A, name in Kabat numbering)
heavy: B1 heavy
chain: B1 chain
light: B1 light with Y35N, N58S
B16: GLS3000 N53T one-arm antibody (antibody, human IgG1, kappa, L234A L235A, N297A, name in Kabat numbering)
heavy: B1 heavy
chain: B1 chain
light: B1 light with Y35N, N58T
B17: GLS3000 N53V one-arm antibody (antibody, human IgG1, kappa, L234A L235A, N297A, name in Kabat numbering)
heavy: B1 heavy
chain: B1 chain
light: B1 light with Y35N, N58V
B18: GLS3000 N53W one-arm antibody (antibody, human IgG1, kappa, L234A L235A, N297A, name in Kabat numbering)
heavy: B1 heavy
chain: B1 chain
light: B1 light with Y35N, N58W
B19: GLS3000 N53Y one-arm antibody (antibody, human IgG1, kappa, L234A L235A, N297A, name in Kabat numbering)
heavy: B1 heavy
chain: B1 chain
light: B1 light with Y35N, N58Y
B20: GLS3000 P95A one-arm antibody (antibody, human IgG1, kappa, L234A L235A, N297A, name in Kabat numbering)
heavy: B1 heavy
chain: B1 chain
light: B1 light with Y35N, P100A
B21: GLS3000 P95D one-arm antibody (antibody, human IgG1, kappa, L234A L235A, N297A, name in Kabat numbering)
heavy: B1 heavy
chain: B1 chain
light: B1 light with Y35N, P100D
B22: GLS3000 P95E one-arm antibody (antibody, human IgG1, kappa, L234A L235A, N297A, name in Kabat numbering)
heavy: B1 heavy
chain: B1 chain
light: B1 light with Y35N, P100E
B23: GLS3000 P95G one-arm antibody (antibody, human IgG1, kappa, L234A L235A, N297A, name in Kabat numbering)
heavy: B1 heavy
chain: B1 chain
light: B1 light with Y35N, P100G
B24: GLS3000 P95L one-arm antibody (antibody, human IgG1, kappa, L234A L235A, N297A, name in Kabat numbering)
heavy: B1 heavy
chain: B1 chain
light: B1 light with Y35N, P100L
B25: GLS3000 P95S one-arm antibody (antibody, human IgG1, kappa, L234A L235A, N297A, name in Kabat numbering)
heavy: B1 heavy
chain: B1 chain
light: B1 light with Y35N, P100S
B26: GLS3000 Q27D one-arm antibody (antibody, human IgG1, kappa, L234A L235A, N297A, name in Kabat numbering)
heavy: B1 heavy
chain: B1 chain
light: B1 light with Q27D, Y35N
B27: GLS3000 Q27E one-arm antibody (antibody, human IgG1, kappa, L234A L235A, N297A, name in Kabat numbering)
heavy: B1 heavy
chain: B1 chain
light: B1 light with Q27E, Y35N
B28: GLS3000 Q27L one-arm antibody (antibody, human IgG1, kappa, L234A L235A, N297A, name in Kabat numbering)
heavy: B1 heavy
chain: B1 chain
light: B1 light with Q27L, Y35N
B29: GLS3000 Q27P one-arm antibody (antibody, human IgG1, kappa, L234A L235A, N297A, name in Kabat numbering)
heavy: B1 heavy
chain: B1 chain
light: B1 light with Q27P, Y35N
B30: GLS3000 Q27R one-arm antibody (antibody, human IgG1, kappa, L234A L235A, N297A, name in Kabat numbering)
heavy: B1 heavy
chain: B1 chain
light: B1 light with Q27R, Y35N
B31: GLS3000 Q90A one-arm antibody (antibody, human IgG1, kappa, L234A L235A, N297A, name in Kabat numbering)
heavy: B1 heavy
chain: B1 chain
light: B1 light with Y35N, Q95A
B32: GLS3000 Q90D one-arm antibody (antibody, human IgG1, kappa, L234A L235A, N297A, name in Kabat numbering)
heavy: B1 heavy
chain: B1 chain
light: B1 light with Y35N, Q95D
B33: GLS3000 Q90E one-arm antibody (antibody, human IgG1, kappa, L234A L235A, N297A, name in Kabat numbering)
heavy: B1 heavy
chain: B1 chain
light: B1 light with Y35N, Q95E
B34: GLS3000 Q90P one-arm antibody (antibody, human IgG1, kappa, L234A L235A, N297A, name in Kabat numbering)
heavy: B1 heavy
chain: B1 chain
light: B1 light with Y35N, Q95P

Target: T1, CD3ε homodimer protein (human, UniProt P07766 23-126, limits assumed)
T1 construct: also called CD3 (CD3ε)
T1 sequence (P07766 23-126 limits assumed): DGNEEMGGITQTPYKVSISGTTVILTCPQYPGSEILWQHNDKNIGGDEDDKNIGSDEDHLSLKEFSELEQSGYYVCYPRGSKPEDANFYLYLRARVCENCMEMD
Assay: SPR Biacore T200, CD3ε homodimer on chip;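 note: Light-chain single-residue variant antibodies injected over amine-coupled CD3ε homodimer on a CM4 chip at 25 °C, bound amount divided by that of the GLS3000-containing antibody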

Row | Binder | ratio of amount bound vs unaltered GLS3000
1 | B1 | 1.04
2 | B2 | 0.61
3 | B3 | 0.34
4 | B4 | 0.54
5 | B5 | 0.69
6 | B6 | 0.76
7 | B7 | 1.18
8 | B8 | 0.5
9 | B9 | 1.08
10 | B10 | 0.56
11 | B11 | 0.62
12 | B12 | 0.81
13 | B13 | 0.77
14 | B14 | 1.58
15 | B15 | 0.69
16 | B16 | 0.56
17 | B17 | 0.56

Row | Binder | ratio of amount bound vs unaltered GLS3000
18 | B18 | 0.81
19 | B19 | 0.67
20 | B20 | 0.63
21 | B21 | 0.24
22 | B22 | 0.39
23 | B23 | 0.37
24 | B24 | 0.24
25 | B25 | 0.43
26 | B26 | 0.85
27 | B27 | 0.88
28 | B28 | 0.92
29 | B29 | 0.29
30 | B30 | 1.19
31 | B31 | 0.5
32 | B32 | 0.19
33 | B33 | 0.86
34 | B34 | 0.27
